Assays:
14-3-3ε:ζ heterodimer = 14-3-3ε:ζ heterodimer (UniProt P62258)
GST-14-3-3γ:γ homodimer = target: T1, GST-14-3-3γ:γ homodimer (UniProt P61981)
T1 sequence: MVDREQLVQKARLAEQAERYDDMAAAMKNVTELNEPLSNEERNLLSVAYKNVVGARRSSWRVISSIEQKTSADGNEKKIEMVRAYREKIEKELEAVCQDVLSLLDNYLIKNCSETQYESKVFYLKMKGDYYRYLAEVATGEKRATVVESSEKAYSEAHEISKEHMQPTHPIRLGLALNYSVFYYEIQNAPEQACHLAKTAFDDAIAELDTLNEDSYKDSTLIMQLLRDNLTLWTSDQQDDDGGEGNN

Chain of UniProt P62258 (P62258 whole entry, chain 1 of 2): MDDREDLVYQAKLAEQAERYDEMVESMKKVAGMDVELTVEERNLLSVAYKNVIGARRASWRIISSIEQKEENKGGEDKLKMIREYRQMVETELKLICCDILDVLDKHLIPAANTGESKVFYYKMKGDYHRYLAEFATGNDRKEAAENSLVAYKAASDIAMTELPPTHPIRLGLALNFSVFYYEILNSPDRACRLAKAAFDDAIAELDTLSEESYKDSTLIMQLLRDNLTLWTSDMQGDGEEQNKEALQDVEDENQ
Chain of UniProt P62258 (P62258 other isoform, or with tags, fused parts or gaps, chain 2 of 2): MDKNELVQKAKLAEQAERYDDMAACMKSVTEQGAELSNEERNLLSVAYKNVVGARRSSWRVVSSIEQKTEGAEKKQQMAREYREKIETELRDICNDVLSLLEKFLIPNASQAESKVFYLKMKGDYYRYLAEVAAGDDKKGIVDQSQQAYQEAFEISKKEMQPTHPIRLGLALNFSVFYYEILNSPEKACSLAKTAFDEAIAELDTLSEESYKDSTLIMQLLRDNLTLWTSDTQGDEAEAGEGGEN

Work on “bovine tyrosine hydroxylase phosphorylated by PRAK on Ser19 (from UniProt P17289 1-491) (enzyme)” yielded a relative activation of bTH-pS19 activity (maximal, 12.5–100 µg/ml thrombin-cleaved 14-3-3, BH4 as cofactor); lowest activation (14-3-3ε:ζ heterodimer) of 3.3 fold and a relative activation of bTH-pS19 activity (maximal, 12.5–100 µg/ml thrombin-cleaved 14-3-3, BH4 as cofactor); highest activation (GST-14-3-3γ:γ homodimer) of 4.4 fold.
